Source: patent publication US20220259283A1 (AARHUS UNIVERSITET, published 2022)

T1: sortilin (human, UniProt Q99523)
T1 construct: soluble, 6his-tagged; Injected at 25-250 nM over immobilized progranulin-6his as a comparison with SorCS2; also called hSortilin-6his; soluble human sortilin
T1 sequence (receptor, soluble form, looked up): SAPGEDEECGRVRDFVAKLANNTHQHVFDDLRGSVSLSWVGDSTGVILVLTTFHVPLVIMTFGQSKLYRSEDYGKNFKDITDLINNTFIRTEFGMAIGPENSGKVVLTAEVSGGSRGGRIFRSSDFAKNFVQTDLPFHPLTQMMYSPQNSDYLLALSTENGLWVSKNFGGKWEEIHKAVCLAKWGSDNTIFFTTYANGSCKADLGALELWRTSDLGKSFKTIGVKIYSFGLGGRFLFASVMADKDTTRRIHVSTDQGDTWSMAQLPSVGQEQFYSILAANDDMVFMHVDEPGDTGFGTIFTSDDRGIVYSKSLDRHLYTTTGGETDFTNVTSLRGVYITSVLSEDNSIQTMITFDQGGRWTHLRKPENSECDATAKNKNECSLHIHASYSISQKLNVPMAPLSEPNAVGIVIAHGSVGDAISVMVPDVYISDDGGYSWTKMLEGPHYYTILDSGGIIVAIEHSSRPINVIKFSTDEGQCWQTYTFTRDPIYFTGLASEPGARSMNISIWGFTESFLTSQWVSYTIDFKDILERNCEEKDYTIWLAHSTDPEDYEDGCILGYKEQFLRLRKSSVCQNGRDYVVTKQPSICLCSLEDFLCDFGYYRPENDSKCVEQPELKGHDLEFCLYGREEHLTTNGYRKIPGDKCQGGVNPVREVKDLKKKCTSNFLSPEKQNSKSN

B1: tetrapeptide RQLL (peptide)
peptide: RQLL
notes: also called RQLL peptide; PGRN-derived tetra peptide
B2: Granulin E (ligand, UniProt P28799 518-593, looked up)
chain: DVECGEGHFCHDNQTCCRDNRQGWACCPYRQGVCCADRRHCCPAGFRCAARGTKCLRREAPRWDAPLRDPALRQLL
notes: domain: Granulin E; also called GrnE
B3: hPGRN-6his (human progranulin with a C-terminal 6his-tag) (ligand)
chain: TRCPDGQFCPVACCLDPGGASYSCCRPLLDKWPTTLSRHLGGPCQVDAHCSAGHSCIFTVSGTSSCCPFPEAVACGDGHHCCPRGFHCSADGRSCFQRSGNNSVGAIQCPDSQFECPDFSTCCVMVDGSWGCCPMPQASCCEDRVHCCPHGAFCDLVHTRCITPTGTHPLAKKLPAQRTNRAVALSSSVMCPDARSRCPDGSTCCELPSGKYGCCPMPNATCCSDHLHCCPQDTVCDLIQSKCLSKENATTDLLTKLPAHTVGDVKCDMEVSCPDGYTCCRLQSGAWGCCPFTQAVCCEDHIHCCPAGFTCDTQKGTCEQGPHQVPWMEKAPAHLSLPDPQALKRDVPCDNVSSCPSSDTCCQLTSGEWGCCPIPEAVCCSDHQHCCPQGYTCVAEGQCQRGSEIVAGLEKMPARRASLSHPRDIGCDQHTSCPVGQTCCPSLGGSWACCQLPHAVCCEDRQHCCPAGYTCNVKARSCEKEVVSAQPATFLARSPHVGVKDVECGEGHFCHDNQTCCRDNRQGWACCPYRQGVCCADRRHCCPAGFRCAARGTKCLRREAPRWDAPLRDPALRQLLHHHHHH
notes: Purified protein; also called progranulin-6his; human progranulin-6his

How the values were obtained:
[1] = target: T2, hSorCS2-6his (extracellular domain of human SorCS2 with a C-terminal 6His-tag) (human, UniProt Q96PQ0 51-1076); assay: microscale thermophoresis, 25 nM labelled hSorCS2-6his, partner titrated, triplicates
T2 construct: Made in CHO-K1 cells and purified from the medium; For crystallisation the protein was deglycosylated with PNGaseF; also called soluble human SorCS2; hSorCS2 extracellular domain
Protocol: Equilibrium-binding affinities between hSorCS2 and hPGRN-6his, GrnE and RQLL peptide were assessed by MST. Purified hSorCS2-6his was labelled using the MO-003 monolith blue-NHS labelling kit according to manufactures recommendation. hSorCS2 was applied at a final concentration of 25 nM while the unlabelled binding partner was titrated in 1:1 dilutions (PBS+0.05% Tween20). MST measurements were performed in standard treated capilaiers on a monolith NT.115 instrument. For each binding partner the sigmoid-dose response curve was fitted with GraphPad prism 6 to yield an average dissociation constant.

[2] = target: B3; assay: SPR, RQLL peptide alone injected over immobilized C-terminal his-tagged progranulin on a CM5 chip (control trace of the competition experiment)
Protocol: (§1) Purified hPGRN-6his or hSorCS2-6his was immobilized on a CM5 sensor chip using standard amine-coupling. All sensograms were collected in PBS+0.05% Tween20 following injection of purified hPGRN-6his over immobilized hSorCS2-6his or hSortilin-6his and hSorCS2-6his with/without PGRN derived peptide over immobilized hPGRN-6his. Following this experimental setup we estimated the dissociation constant of the hSorCS2:hPGRN interaction to be 15 nM (FIG. 4). […] Inhibition experiments was performed using 100 nM hSorCS2 preincubated with 100 uM PGRN-derived tetra peptide and injected over immobilized hPGRN-6his (FIG. 7).

[3] = target: T2, hSorCS2-6his (extracellular domain of …); assay: SPR, hPGRN-6his injected over hSorCS2-6his immobilized on a CM5 chip
Protocol: as §1

sortilin = target: T1, sortilin; assay: SPR, soluble human sortilin injected over immobilized C-terminal his-tagged progranulin on a CM5 chip
Protocol: as §1

[4] = target: T2, hSorCS2-6his (extracellular domain of …); assay: SPR, hSorCS2-6his injected over hPGRN-6his immobilized on a CM5 chip
Protocol: as §1

T2 sequence (Q96PQ0 other isoform, or with tags, fused parts or gaps): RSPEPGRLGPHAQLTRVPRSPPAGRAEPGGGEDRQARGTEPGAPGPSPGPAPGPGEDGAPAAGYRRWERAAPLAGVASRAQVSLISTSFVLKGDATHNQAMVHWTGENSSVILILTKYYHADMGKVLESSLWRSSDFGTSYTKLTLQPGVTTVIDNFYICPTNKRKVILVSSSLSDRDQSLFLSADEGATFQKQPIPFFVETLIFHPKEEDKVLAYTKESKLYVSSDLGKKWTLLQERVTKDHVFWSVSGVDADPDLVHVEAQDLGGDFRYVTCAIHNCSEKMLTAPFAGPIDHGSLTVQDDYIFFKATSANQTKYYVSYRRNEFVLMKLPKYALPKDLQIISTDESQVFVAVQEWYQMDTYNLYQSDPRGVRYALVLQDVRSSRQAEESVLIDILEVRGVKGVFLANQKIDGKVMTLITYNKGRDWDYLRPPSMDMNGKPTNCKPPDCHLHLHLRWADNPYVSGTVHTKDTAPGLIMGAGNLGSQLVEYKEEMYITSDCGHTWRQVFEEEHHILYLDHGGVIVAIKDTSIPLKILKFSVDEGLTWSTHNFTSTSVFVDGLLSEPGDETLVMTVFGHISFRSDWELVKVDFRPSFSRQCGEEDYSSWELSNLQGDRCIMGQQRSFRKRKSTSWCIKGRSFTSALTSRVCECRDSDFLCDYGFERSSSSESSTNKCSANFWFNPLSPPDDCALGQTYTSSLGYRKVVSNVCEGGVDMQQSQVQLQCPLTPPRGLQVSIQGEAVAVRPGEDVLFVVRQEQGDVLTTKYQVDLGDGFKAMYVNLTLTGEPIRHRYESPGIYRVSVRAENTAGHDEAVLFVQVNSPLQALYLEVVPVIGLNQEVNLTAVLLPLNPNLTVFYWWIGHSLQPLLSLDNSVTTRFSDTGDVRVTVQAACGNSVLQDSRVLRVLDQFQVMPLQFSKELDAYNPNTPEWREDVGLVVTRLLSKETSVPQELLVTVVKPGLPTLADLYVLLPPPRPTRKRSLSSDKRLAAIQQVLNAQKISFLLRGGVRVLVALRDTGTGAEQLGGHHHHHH

| Kd [1] | binding result [2] | Kd [3] | binding result (sortilin) | Kd [4] | Binder |
| --- | --- | --- | --- | --- | --- |
| 1000 nM | no binding (tested: 100 uM) | – | – | – | B1 |
| 2000 nM | – | – | – | – | B2 |
| 47.8 nM | – | 15 nM | no binding (tested: 250 nM) | 7.4 nM | B3 |
